In patent US20250262210A1 (TRUSTEES OF COLUMBIA UNIVERSITY IN THE CITY OF NEW YORK, published 2025):

T1: LZTR1 R810W-FLAG (human, UniProt Q8N653 1-840)
T1 construct: Stably expressed in U87 cells by lentivirus; also called LZTR1-FLAG-R810W; LZTR1 RW; not shown: FLAG tag
T1 sequence (looked up): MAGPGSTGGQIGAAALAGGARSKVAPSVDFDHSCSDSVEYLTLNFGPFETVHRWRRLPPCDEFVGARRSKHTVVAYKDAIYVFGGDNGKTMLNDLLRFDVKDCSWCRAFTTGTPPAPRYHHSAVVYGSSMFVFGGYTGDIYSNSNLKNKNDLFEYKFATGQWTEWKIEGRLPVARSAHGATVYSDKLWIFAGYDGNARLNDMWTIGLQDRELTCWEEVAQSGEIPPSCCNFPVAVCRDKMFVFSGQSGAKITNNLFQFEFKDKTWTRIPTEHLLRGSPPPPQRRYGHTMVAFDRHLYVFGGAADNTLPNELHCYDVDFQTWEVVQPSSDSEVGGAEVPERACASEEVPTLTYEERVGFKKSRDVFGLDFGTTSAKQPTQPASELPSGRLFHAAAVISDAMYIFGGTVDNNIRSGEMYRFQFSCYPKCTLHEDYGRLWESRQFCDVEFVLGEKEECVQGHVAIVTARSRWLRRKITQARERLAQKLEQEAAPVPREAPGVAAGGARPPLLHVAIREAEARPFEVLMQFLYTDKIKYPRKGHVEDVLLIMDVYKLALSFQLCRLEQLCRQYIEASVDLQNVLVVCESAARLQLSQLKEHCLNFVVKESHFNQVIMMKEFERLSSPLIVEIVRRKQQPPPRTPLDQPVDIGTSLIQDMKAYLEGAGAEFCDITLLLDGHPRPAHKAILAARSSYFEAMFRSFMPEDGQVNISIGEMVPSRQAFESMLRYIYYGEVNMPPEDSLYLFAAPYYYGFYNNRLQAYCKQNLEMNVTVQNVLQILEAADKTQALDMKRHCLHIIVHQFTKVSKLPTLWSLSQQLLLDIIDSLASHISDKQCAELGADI

T2: LZTR1-FLAG (human, UniProt Q8N653 1-840)
T2 construct: Expressed in HEK 293T, HeLa or U87 cells; used as cell lysate; also called LZTR1 wild type-FLAG; LZTR1 WT; not shown: FLAG tag at the C-terminus
T2 sequence (looked up): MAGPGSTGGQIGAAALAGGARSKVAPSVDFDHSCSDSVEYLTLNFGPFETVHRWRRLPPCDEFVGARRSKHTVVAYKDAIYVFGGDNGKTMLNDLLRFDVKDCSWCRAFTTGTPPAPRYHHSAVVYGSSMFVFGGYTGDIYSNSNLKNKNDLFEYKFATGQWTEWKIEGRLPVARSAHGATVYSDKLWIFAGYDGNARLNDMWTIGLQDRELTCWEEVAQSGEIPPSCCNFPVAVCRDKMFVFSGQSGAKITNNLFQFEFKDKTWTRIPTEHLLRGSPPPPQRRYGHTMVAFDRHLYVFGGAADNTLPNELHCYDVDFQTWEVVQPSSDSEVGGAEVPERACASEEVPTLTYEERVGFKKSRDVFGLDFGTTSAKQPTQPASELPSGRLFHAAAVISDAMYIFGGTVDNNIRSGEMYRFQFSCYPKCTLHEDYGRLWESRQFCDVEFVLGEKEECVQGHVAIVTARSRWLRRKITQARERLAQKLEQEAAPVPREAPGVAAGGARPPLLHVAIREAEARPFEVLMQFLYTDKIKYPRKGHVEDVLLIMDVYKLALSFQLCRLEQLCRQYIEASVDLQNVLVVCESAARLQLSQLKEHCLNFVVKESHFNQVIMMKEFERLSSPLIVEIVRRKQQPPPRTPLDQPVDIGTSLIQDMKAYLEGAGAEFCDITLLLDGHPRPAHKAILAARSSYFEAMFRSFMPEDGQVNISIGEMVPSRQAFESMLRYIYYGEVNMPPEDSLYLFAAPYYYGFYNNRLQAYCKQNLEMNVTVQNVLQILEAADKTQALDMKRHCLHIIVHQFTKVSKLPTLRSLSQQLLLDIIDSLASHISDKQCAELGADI


How the values were obtained:
LZTR1 R810W-FLAG = biological target: T1, LZTR1 R810W-FLAG; test: IP/MS, LZTR1 R810W-FLAG, U87
Experimental: (§1) Lysates were immunoprecipitated with FLAG affinity matrix and eluted with FLAG peptide. […] Protein gel slices were excised and in-gel digestion performed as previously described (83), with minor modifications. Gel slices were washed with 1:1 A cetonitrile and 100 mM ammonium bicarbonate for 30 min then dehydrated with 100% acetonitrile for 10 min until shrunk. The excess acetonitrile was then removed and the slices dried in speed-vacuum at room temperature for 10 min. Gel slices were reduced with 5 mM DTT for 30 min at 56° C. in an air thermostat, cooled down to room temperature, and alkylated with 11 mM IAA for 30 min with no light. Gel slices were then washed with 100 mM of ammonium bicarbonate and 100% acetonitrile for 10 min each. Excess acetonitrile was removed and dried in a speed-vacuum for 10 min at room temperature and the gel slices were re-hydrated in a solution of 25 ng/μl trypsin in 50 mM ammonium bicarbonate for 30 min on ice and digested overnight at 37° C. in an air thermostat. Digested peptides were collected and further extracted from gel slices in extraction buffer (1:2 ratio by volume of 5% formic acid:acetonitrile) at high speed, shaking in an air thermostat. The supernatants from both extractions were combined and dried in a speed-vacuum. Peptides were dissolved in 3% acetonitrile/0.1% formic acid. Desalted peptides were injected in an EASY-Spray™ PepMap™ RSLC C18 50 cm×[…] column (Thermo Scientific) connected to an Orbitrap Fusion™ Tribrid™ (Thermo Scientific) as described in “Global ubiquitylation enrichment” section. The following modifications were used for protein identification and quantification: oxidation of methionine (M), acetylation of the protein N-terminus, and deamination for asparagine or glutamine (NQ). Results obtained from MaxQuant were assembled in Scaffold for data visualization.

LZTR1-FLAG = biological target: T2, LZTR1-FLAG; test: IP/MS, LZTR1 wild type-FLAG, U87
Experimental: as §1

| binding result (LZTR1 R810W-FLAG) | binding result (LZTR1-FLAG) | Binder |
| --- | --- | --- |
| binds | binds | AMOTL2 (other, human, UniProt Q9Y2J4 1-779, looked up) MRTLEDSSGTVLHRLIQEQLRYGNLTETRTLLAIQQQALRGGAGTGGTGSPQASLEILAPEDSQVLQQATRQEPQGQEHQGGENHLAENTLYRLCPQPSKGEELPTYEEAKAHSQYYAAQQAGTRPHAGDRDPRGAPGGSRRQDEALRELRHGHVRSLSERLLQLSLERNGARAPSHMSSSHSFPQLARNQQGPPLRGPPAEGPESRGPPPQYPHVVLAHETTTAVTDPRYRARGSPHFQHAEVRILQAQVPPVFLQQQQQYQYLQQSQEHPPPPHPAALGHGPLSSLSPPAVEGPVSAQASSATSGSAHLAQMEAVLRENARLQRDNERLQRELESSAEKAGRIEKLESEIQRLSEAHESLTRASSKREALEKTMRNKMDSEMRRLQDFNRDLRERLESANRRLASKTQEAQAGSQDMVAKLLAQSYEQQQEQEKLEREMALLRGAIEDQRRRAELLEQALGNAQGRAARAEEELRKKQAYVEKVERLQQALGQLQAACEKREQLELRLRTRLEQELKALRAQQRQAGAPGGSSGSGGSPELSALRLSEQLREKEEQILALEADMTKWEQKYLEERAMRQFAMDAAATAAAQRDTTLIRHSPQPSPSSSFNEGLLTGGHRHQEMESRLKVLHAQILEKDAVIKVLQQRSRRDPGKAIQGSLRPAKSVPSVFAAAAAGTQGWQGLSSSERQTADAPARLTTDRAPTEEPVVTAPPAAHAKHGSRDGSTQTEGPPDSTSTCLPPEPDSLLGCSSSQRAASLDSVATSRVQDLSDMVEILI |
| binds | binds | APPL1 (other, human, UniProt Q9UKG1 1-709, looked up) MPGIDKLPIEETLEDSPQTRSLLGVFEEDATAISNYMNQLYQAMHRIYDAQNELSAATHLTSKLLKEYEKQRFPLGGDDEVMSSTLQQFSKVIDELSSCHAVLSTQLADAMMFPITQFKERDLKEILTLKEVFQIASNDHDAAINRYSRLSKKRENDKVKYEVTEDVYTSRKKQHQTMMHYFCALNTLQYKKKIALLEPLLGYMQAQISFFKMGSENLNEQLEEFLANIGTSVQNVRREMDSDIETMQQTIEDLEVASDPLYVPDPDPTKFPVNRNLTRKAGYLNARNKTGLVSSTWDRQFYFTQGGNLMSQARGDVAGGLAMDIDNCSVMAVDCEDRRYCFQITSFDGKKSSILQAESKKDHEEWICTINNISKQIYLSENPEETAARVNQSALEAVTPSPSFQQRHESLRPAAGQSRPPTARTSSSGSLGSESTNLAALSLDSLVAPDTPIQFDIISPVCEDQPGQAKAFGQGGRRTNPFGESGGSTKSETEDSILHQLFIVRFLGSMEVKSDDHPDVVYETMRQILAARAIHNIFRMTESHLLVTCDCLKLIDPQTQVTRLTFPLPCVVLYATHQENKRLFGFVLRTSSGRSESNLSSVCYIFESNNEGEKICDSVGLAKQIALHAELDRRASEKQKEIERVKEKQQKELNKQKQIEKDLEEQSRLIAASSRPNQASSEGQFVVLSSSQSEESDLGEGGKKRESEA |
| binds | binds | APEH (other, human, UniProt P13798 1-732, looked up) MERQVLLSEPEEAAALYRGLSRQPALSAACLGPEVTTQYGGQYRTVHTEWTQRDLERMENIRFCRQYLVFHDGDSVVFAGPAGNSVETRGELLSRESPSGTMKAVLRKAGGTGPGEEKQFLEVWEKNRKLKSFNLSALEKHGPVYEDDCFGCLSWSHSETHLLYVAEKKRPKAESFFQTKALDVSASDDEIARLKKPDQAIKGDQFVFYEDWGENMVSKSIPVLCVLDVESGNISVLEGVPENVSPGQAFWAPGDAGVVFVGWWHEPFRLGIRFCTNRRSALYYVDLIGGKCELLSDDSLAVSSPRLSPDQCRIVYLQYPSLIPHHQCSQLCLYDWYTKVTSVVVDVVPRQLGENFSGIYCSLLPLGCWSADSQRVVFDSAQRSRQDLFAVDTQVGTVTSLTAGGSGGSWKLLTIDQDLMVAQFSTPSLPPTLKVGFLPSAGKEQSVLWVSLEEAEPIPDIHWGIRVLQPPPEQENVQYAGLDFEAILLQPGSPPDKTQVPMVVMPHGGPHSSFVTAWMLFPAMLCKMGFAVLLVNYRGSTGFGQDSILSLPGNVGHQDVKDVQFAVEQVLQEEHFDASHVALMGGSHGGFISCHLIGQYPETYRACVARNPVINIASMLGSTDIPDWCVVEAGFPFSSDCLPDLSVWAEMLDKSPIRYIPQVKTPLLLMLGQEDRRVPFKQGMEYYRALKTRNVPVRLLLYPKSTHALSEVEVESDSFMNAVLWLRTHLGS |
